We go through 1 protein from article PMC3485013, “Rubber Elongation Factor (REF), a Major Allergen Component in Hevea brasiliensis Latex Has Amyloid Properties” (PLoS ONE, 2012).

This series deals with the molecule itself. Description: aggregation of the purified protein in solution (visible precipitation; aggregates examined by Congo red, CD, ATR-FTIR, TEM, WAXS); protein alone at 20 µM in 1x PBS pH 7.4, 37°C, 3 h, kept at 4°C (legend of Figure 2C: 50 µM).

B1: Rubber Elongation Factor (REF), recombinant 6His-REF (natural protein, Hevea brasiliensis, UniProt P15252 1-138, looked up)
chain: MAEDEDNQQGQGEGLKYLGFVQDAATYAVTTFSNVYLFAKDKSGPLQPGVDIIEGPVKNVAVPLYNRFSYIPNGALKFVDSTVVASVTIIDRSLPPIVKDASIQVVSAIRAAPEAARSLASSLPGQTKILAKVFYGEN
notes: gene synthesised after codon optimisation from GenBank X56535; No removal of the tag is described, and the same preparation is detected by anti-His antibody in the lipid dot blots; also called Hevb1; HbREF; source: E. coli BL21 (DE3) pLysS Gold, inclusion bodies, purified (Ni-NTA in 8 M urea, dialysed against buffer A); not shown: His6, N-terminal, kept
For B1, the binding result is reported as “binds”.
